Test results published in patent US20240182536A1 (MURAL ONCOLOGY, published 2024).

T1: mouse IL-18 binding protein (mouse, UniProt Q9Z0M9 29-193)
T1 construct: also called Mouse IL18BP; Mouse IL-18BP
T1 sequence (looked up): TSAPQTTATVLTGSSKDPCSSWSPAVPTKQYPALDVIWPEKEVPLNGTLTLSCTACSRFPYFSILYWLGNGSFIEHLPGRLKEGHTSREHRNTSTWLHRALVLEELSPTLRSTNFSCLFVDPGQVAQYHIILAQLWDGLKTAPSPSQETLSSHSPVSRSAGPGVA

T2: mouse IL-18 receptor alpha (mouse, UniProt Q61098 20-326, limits assumed)
T2 construct: also called Mouse IL18Ra; mouse IL-18R alpha
T2 sequence (looked up): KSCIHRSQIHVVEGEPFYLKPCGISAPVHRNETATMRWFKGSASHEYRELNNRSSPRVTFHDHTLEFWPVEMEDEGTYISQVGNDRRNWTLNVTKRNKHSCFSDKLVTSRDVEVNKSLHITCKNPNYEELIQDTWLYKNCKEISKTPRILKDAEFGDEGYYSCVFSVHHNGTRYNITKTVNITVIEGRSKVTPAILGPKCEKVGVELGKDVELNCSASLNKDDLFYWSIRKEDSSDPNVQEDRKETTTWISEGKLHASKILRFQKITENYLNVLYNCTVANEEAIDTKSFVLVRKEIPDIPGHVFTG

T3: mouse IL-18 receptors on PathHunter U2OS mIL18-NF-kb reporter cells (mouse, UniProt Q61098 20-537; Q9Z2B1 20-614)
T3 sequence (looked up) 1: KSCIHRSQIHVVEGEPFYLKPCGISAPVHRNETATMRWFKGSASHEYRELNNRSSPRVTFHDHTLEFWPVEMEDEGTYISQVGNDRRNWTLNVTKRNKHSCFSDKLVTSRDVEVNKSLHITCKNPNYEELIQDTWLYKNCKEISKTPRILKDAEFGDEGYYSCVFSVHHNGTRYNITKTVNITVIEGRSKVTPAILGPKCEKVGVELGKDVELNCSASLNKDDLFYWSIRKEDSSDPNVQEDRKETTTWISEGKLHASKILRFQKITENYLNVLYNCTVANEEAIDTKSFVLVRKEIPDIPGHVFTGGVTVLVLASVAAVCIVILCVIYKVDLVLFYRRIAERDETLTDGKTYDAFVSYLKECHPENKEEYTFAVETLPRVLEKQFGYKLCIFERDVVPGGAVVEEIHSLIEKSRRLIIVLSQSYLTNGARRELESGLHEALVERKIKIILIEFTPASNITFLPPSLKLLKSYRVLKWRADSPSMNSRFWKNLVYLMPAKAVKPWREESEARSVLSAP
T3 sequence (looked up) 2: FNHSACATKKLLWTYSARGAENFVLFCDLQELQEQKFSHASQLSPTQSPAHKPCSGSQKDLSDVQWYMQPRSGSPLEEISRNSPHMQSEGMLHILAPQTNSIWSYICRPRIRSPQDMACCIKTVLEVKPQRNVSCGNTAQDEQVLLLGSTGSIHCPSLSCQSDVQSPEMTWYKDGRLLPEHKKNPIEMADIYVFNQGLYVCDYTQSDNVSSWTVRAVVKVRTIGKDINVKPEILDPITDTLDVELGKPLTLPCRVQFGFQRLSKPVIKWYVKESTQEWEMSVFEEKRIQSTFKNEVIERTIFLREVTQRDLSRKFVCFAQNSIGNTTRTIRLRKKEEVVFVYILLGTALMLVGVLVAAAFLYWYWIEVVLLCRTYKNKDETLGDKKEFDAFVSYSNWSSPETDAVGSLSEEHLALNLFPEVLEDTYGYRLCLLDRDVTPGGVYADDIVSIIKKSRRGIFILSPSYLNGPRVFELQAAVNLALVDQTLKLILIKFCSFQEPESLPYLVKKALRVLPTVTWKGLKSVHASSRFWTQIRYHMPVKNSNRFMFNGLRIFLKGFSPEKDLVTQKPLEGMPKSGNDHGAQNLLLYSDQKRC


Columns and labels:
[1] = biological target: T1, mouse IL-18 binding protein; test: Octet BLI, monoFc scaffold
Procedure: (§1) Octet 96red instrument was used to determine affinities of IL18 proteins to BP or receptors. 5-10 ug/ml analyte proteins were used for loading on Sartorius tips (AHC or SA). […] 120-180 s loading, 200 s association and 800 s dissociation were used for kinetics. 3-7 data points were used to calculate affinities.
(§2) Several mouse variants were next tested for binding affinity to mouse IL-18R alpha and mouse IL-18BP.

[2] = biological target: T2, mouse IL-18 receptor alpha; test: Octet BLI, monoFc scaffold
Procedure: as §1, §2

[3] = biological target: T1, mouse IL-18 binding protein; test: cell-based or functional assay
[4] = biological target: T3, mouse IL-18 receptors on PathHunter …; test: cell-based or functional assay

Binder	Kd [1]	Kd [2]	mouse IL-18 reporter assay EC50, +Mouse IL-18BP 50 nM [3]	mouse IL-18 reporter assay EC50, without mouse IL-18BP [4]
mouse IL-18 G3T, H6K, K52A on monoFc scaffold (Fc fusion, not shown: small tags and cut ends) NFTRLKSTTAVIRNINDQVLFVDKRQPVFEDMTDIDQSASEPQTRLIIYMYADSEVRGLAVTLSVKDSKMSTLSSKNKIISFEEMDPPENIDDIQSDLIFFQKRVPGHNKMEFESSLYEGHFLACQKEDDAFKLILKKKDENGDKSVMFTLTNLHQSNGGPSVFLFPPKPKDTLMISRTPEVTCVVVDVSHEDPEVKFNWYVDGVEVHNAKTKPREEQYNSTYRVVSVLTVLHQDWLNGKEYKCKVSNKALPAPIEKTISKAKGQPREPQVYTLPPSREEMTKNQVNLTCLVKGFYPSDIAVEWESNGQPENNYKTTPPVLDSDGSFFLNSTLTVDKSRWQQGNVFSCSVMHEALHNHYTQKSLSLS	78 nM	42.7 nM	1.69 pM	1.76 pM
mouse IL-18 G3V, K52A on monoFc scaffold (Fc fusion, not shown: small tags and cut ends) NFVRLHSTTAVIRNINDQVLFVDKRQPVFEDMTDIDQSASEPQTRLIIYMYADSEVRGLAVTLSVKDSKMSTLSSKNKIISFEEMDPPENIDDIQSDLIFFQKRVPGHNKMEFESSLYEGHFLACQKEDDAFKLILKKKDENGDKSVMFTLTNLHQSNGGPSVFLFPPKPKDTLMISRTPEVTCVVVDVSHEDPEVKFNWYVDGVEVHNAKTKPREEQYNSTYRVVSVLTVLHQDWLNGKEYKCKVSNKALPAPIEKTISKAKGQPREPQVYTLPPSREEMTKNQVNLTCLVKGFYPSDIAVEWESNGQPENNYKTTPPVLDSDGSFFLNSTLTVDKSRWQQGNVFSCSVMHEALHNHYTQKSLSLS	2 nM	8.85 nM	36.4 pM	0.7 pM
mouse IL-18 G3V, H6K, K52A on monoFc scaffold (Fc fusion, not shown: small tags and cut ends) NFVRLKSTTAVIRNINDQVLFVDKRQPVFEDMTDIDQSASEPQTRLIIYMYADSEVRGLAVTLSVKDSKMSTLSSKNKIISFEEMDPPENIDDIQSDLIFFQKRVPGHNKMEFESSLYEGHFLACQKEDDAFKLILKKKDENGDKSVMFTLTNLHQSNGGPSVFLFPPKPKDTLMISRTPEVTCVVVDVSHEDPEVKFNWYVDGVEVHNAKTKPREEQYNSTYRVVSVLTVLHQDWLNGKEYKCKVSNKALPAPIEKTISKAKGQPREPQVYTLPPSREEMTKNQVNLTCLVKGFYPSDIAVEWESNGQPENNYKTTPPVLDSDGSFFLNSTLTVDKSRWQQGNVFSCSVMHEALHNHYTQKSLSLS	14 nM	4.85 nM	4.86 pM	0.9 pM
mouse IL-18 G3T, K52A on monoFc scaffold (Fc fusion, not shown: small tags and cut ends) NFTRLHSTTAVIRNINDQVLFVDKRQPVFEDMTDIDQSASEPQTRLIIYMYADSEVRGLAVTLSVKDSKMSTLSSKNKIISFEEMDPPENIDDIQSDLIFFQKRVPGHNKMEFESSLYEGHFLACQKEDDAFKLILKKKDENGDKSVMFTLTNLHQSNGGPSVFLFPPKPKDTLMISRTPEVTCVVVDVSHEDPEVKFNWYVDGVEVHNAKTKPREEQYNSTYRVVSVLTVLHQDWLNGKEYKCKVSNKALPAPIEKTISKAKGQPREPQVYTLPPSREEMTKNQVNLTCLVKGFYPSDIAVEWESNGQPENNYKTTPPVLDSDGSFFLNSTLTVDKSRWQQGNVFSCSVMHEALHNHYTQKSLSLS	11 nM	97 nM	20.8 pM	1.24 pM
